Measurements from patent publication US20250188189A1 (published 2025).
Where a chain is given by its changes, count along the chain named.

T1: plasma-derived human activated protein C (APC) (UniProt P04070 43-461)
T1 chain: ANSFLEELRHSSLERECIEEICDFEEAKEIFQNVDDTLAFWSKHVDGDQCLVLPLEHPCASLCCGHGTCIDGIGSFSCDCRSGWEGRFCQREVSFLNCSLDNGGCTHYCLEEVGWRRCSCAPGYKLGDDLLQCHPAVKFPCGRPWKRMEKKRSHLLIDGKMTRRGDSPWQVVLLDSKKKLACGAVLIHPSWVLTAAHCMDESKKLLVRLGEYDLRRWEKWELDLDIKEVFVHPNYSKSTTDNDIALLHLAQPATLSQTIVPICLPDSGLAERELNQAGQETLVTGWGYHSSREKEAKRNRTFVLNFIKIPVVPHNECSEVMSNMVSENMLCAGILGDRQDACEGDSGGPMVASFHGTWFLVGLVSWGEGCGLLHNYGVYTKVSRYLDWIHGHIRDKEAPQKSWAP

B1: TPP-24875 (antibody, V domains shown)
VL: DIVMTQSPLSLPVTPGEPASISCRSSQSVSSFGATFMHWYQQKPGQPPKLLIYLASNRASGVPDRFSGSGSGTDFTLTINPVEADDTANYYCQQNNEDPYTFGQGTKLEIK
B2: TPP-24847 (antibody, V domains shown)
VL: DIVLTQSPASLAVSPGQRATITCKASQSVSSFGATFMHWYLQKPGQSPQLLIYLASNLESGVPARFSGSGSGTDFTLTINPVEADDTANYYCQQNNEDPYTFGQGTKLEIK
B3: TPP-24853 (antibody, V domains shown)
VL: B2 VL with L58R, E59A, A64D, T78K, N80S, P81R, D85E, T87V, A88G, N89V
B4: TPP-24841 (antibody, V domains shown)
VL: B2 VL with L41Q, S47P, Q49K, T78K, N80S, P81R, D85E, T87V, A88G, N89V
B5: TPP-24843 (antibody, V domains shown)
VL: B2 VL with L41Q, S47P, Q49K, L58R, E59A, A64D
B6: TPP-24851 (antibody, V domains shown)
VL: B2 VL with L58R, E59A, A64D
B7: TPP-24827 (antibody, V domains shown)
VL: B2 VL with Q27E, S30D, L41Q, S47P, Q49K, L58R, E59A, A64D
B8: TPP-24869 (antibody, V domains shown)
VL: DIVMTQSPLSLPVTPGEPASISCRSSESVDSFGATFMHWYLQKPGQSPQLLIYLASNRASGVPDRFSGSGSGTDFTLKISRVEAEDVGVYYCQQNNEDPYTFGQGTKLEIK
B9: TPP-24913 (antibody, V domains shown)
VL: EIVLTQSPGTLSLSPGERATLSCRASQSVSSFGATFMHWYLQKPGQSPQLLIYLASNLESGVPARFSGSGSGTDFTLKISRVEAEDVGVYYCQQNNEDPYTFGQGTKLEIK
B10: TPP-24901 (antibody, V domains shown)
VL: B9 VL with Q27E, S30D, L58R, E59A, A64D
B11: TPP-24911 (antibody, V domains shown)
VL: B9 VL with K78T, S80N, R81P, E85D, V87T, G88A, V89N
B12: TPP-24917 (antibody, V domains shown)
VL: B9 VL with L58R, E59A, A64D
B13: TPP-24893 (antibody, V domains shown)
VL: B9 VL with Q27E, S30D, L41Q, S47P, Q49K, L58R, E59A, A64D
B14: TPP-24909 (antibody, V domains shown)
VL: B9 VL with L41Q, S47P, Q49K, L58R, E59A, A64D
B15: TPP-24829 (antibody, V domains shown)
VL: DIVLTQSPASLAVSPGQRATITCKASESVDSFGATFMHWYQQKPGQPPKLLIYLASNRASGVPDRFSGSGSGTDFTLKISRVEAEDVGVYYCQQNNEDPYTFGQGTKLEIK
B16: TPP-24845 (antibody, V domains shown)
VL: B15 VL with E27Q, D30S
B17: TPP-29845 (antibody, V domains shown)
VH: EVQLVESGGGLVQPGGSLRLSCAASGFTFSNFYMNWVRQAPGKGLEWVSYISSSSSTIYYADSVKGRFTISRDDSKNSLYLQMNSLKTEDTAVYYCAREGDYFDYWGQGTLVTVSS
VL: EIVLTQSPGTLSLSPGERATLSCRASQSVSSFGATFMHWYQQKPGQPPKLLIYLASNRASGVPDRFSGSGSGTDFTLKISRVEAEDVGVYYCQQNNEDPYTFGQGTKLEIKR
B18: TPP-29857 (antibody, V domains shown)
VH: B17 VH with F32Y
VL: B17 VL with Y100W
B19: TPP-29844 (antibody, V domains shown)
VH: B17 VH with N31I, F32Y
VL: B17 VL
B20: TPP-29855 (antibody, V domains shown)
VH: B17 VH with F32Y, S54R
VL: B17 VL
B21: TPP-29864 (antibody, V domains shown)
VH: B17 VH with F32Y
VL: B17 VL with N57R
B22: TPP-29848 (antibody, V domains shown)
VH: B17 VH with F32Y
VL: B17 VL with Q27E
B23: TPP-29843 (antibody, V domains shown)
VH: B17 VH with F32Y, S53T
VL: B17 VL
B24: TPP-29850 (antibody, V domains shown)
VH: B17 VH with F32Y
VL: B17 VL with N57W
B25: TPP-29863 (antibody, V domains shown)
VH: B17 VH with F32Y
VL: B17 VL with S28R
B26: TPP-29858 (antibody, V domains shown)
VH: B17 VH with F32Y
VL: B17 VL with S56R
B27: TPP-29856 (antibody, V domains shown)
VH: B17 VH with F32Y
VL: B17 VL with N57H
B28: TPP-29846 (antibody, V domains shown)
VH: B17 VH with N31P, F32Y
VL: B17 VL
B29: TPP-29853 (antibody, V domains shown)
VH: B17 VH with F32Y, F103M
VL: B17 VL
B30: TPP-29847 (antibody, V domains shown)
VH: B17 VH with F32Y
VL: B17 VL with Y100F
B31: TPP-29865 (antibody, V domains shown)
VH: B17 VH with F32Y, M34F
VL: B17 VL
B32: TPP-29866 (antibody, V domains shown)
VH: B17 VH with F32Y, T57P
VL: B17 VL
B33: TPP-29861 (antibody, V domains shown)
VH: B17 VH with F32Y, S56R
VL: B17 VL
B34: TPP-29854 (antibody, V domains shown)
VH: B17 VH with F32Y
VL: B17 VL with A55K
B35: TPP-26939 (antibody, V domains shown)
VH: EVQLVESGGGLVQPGGSLRLSCAASGFTFSNYYINWVRQAPGKGLEWVGDIRLKSNNYEKHYAESVKGRFTISRDDSKNSLYLQMNSLKTEDTAVYYCAREGDYFDYWGQGTLVTVSS
VL: B17 VL with E1D, G9A, T10S, S12A, L13V, E17Q, L21I, S22T, R24K
B36: TPP-29860 (antibody, V domains shown)
VH: B17 VH with F32Y
VL: B17 VL with Q93T
B37: TPP-29849 (antibody, V domains shown)
VH: B17 VH with F32Y
VL: B17 VL with S56W
B38: TPP-29852 (antibody, V domains shown)
VH: B17 VH with N31F, F32Y
VL: B17 VL
B39: TPP-26922 (antibody, V domains shown)
VH: B35 VH with I34M, N35S
VL: B17 VL

Molecular target: T1, plasma-derived human activated protein …
Experiment: SPR

Kd	Binder
47.7 nM	B1
85.5 nM	B2
51.5 nM	B3
93.2 nM	B4
48.6 nM	B5
49.8 nM	B6
31.7 nM	B7
24.2 nM	B8
85.6 nM	B9
26.9 nM	B10
43.2 nM	B11
44.6 nM	B12
28.6 nM	B13
46.2 nM	B14
31.3 nM	B15
54 nM	B16

Molecular target: T1, plasma-derived human activated protein …
Experiment: SPR; head prints nM; kd/ka gives M

Kd	Binder
10.7 nM	B17
13.3 nM	B18
10.1 nM	B19
26.1 nM	B20
10.4 nM	B21
16.2 nM	B22
22.3 nM	B23
3.13 nM	B24
23.8 nM	B25
24.9 nM	B26
21.3 nM	B27
6.37 nM	B28
23.3 nM	B29
8.33 nM	B30
12.7 nM	B31
22.2 nM	B32
11.3 nM	B33
25.2 nM	B34
52.1 nM	B35
23.9 nM	B36
10.2 nM	B37
1.18 nM	B38
91.7 nM	B39
